The results in this text go back to US20220135701A1 (Genentech, published 2022).

By Kd is commonly meant the equilibrium constant for the complex coming apart. A low value points to higher affinity.

The test has as its target T1, human MerTK (human, UniProt Q12866 26-499).
T1 construct: also called HuMER
T1 sequence: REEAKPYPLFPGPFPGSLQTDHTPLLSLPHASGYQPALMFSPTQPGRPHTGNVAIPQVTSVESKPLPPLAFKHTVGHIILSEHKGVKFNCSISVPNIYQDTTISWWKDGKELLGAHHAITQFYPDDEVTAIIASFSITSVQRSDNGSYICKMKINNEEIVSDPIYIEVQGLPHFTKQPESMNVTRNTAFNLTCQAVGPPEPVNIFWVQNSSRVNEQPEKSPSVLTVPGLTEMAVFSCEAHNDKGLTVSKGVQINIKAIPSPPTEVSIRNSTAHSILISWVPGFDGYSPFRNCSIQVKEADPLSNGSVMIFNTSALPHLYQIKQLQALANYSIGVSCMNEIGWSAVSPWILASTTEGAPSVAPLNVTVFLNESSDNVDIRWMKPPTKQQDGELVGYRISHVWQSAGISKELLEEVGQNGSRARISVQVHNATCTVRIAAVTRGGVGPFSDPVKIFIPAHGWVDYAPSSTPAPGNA
Briefly: SPR BIAcore T200, Ab captured, 37C. As for the experimental part: Each humanized mutation variant was subject to BIAcore analysis to determine the important rabbit residues for binding and stability. Binding affinity determinations were obtained using Surface Plasmon Resonance (SRP) measurements from a BIAcore™-T200 instrument. Briefly, each humanized mutation variant antibody was captured to achieve approximately 100 RU (Response Units). Then, 3-fold serial dilutions of human MerTK (0.4 nM to 100 nM) diluted in HBS-EP buffer (0.01M HEPES pH 7.4, 0.15M NaCl, 3 mM EDTA and 0.05% v/v surfactant P20) was injected into the BIAcore™-T200 instrument at 37° C. with a flow rate of 30 μl/min. Association rates (kₒₙ) and dissociation rates (koff) were calculated using a simple one-to-one Langmuir binding model (BIAcore T200 evaluation software version 2.0). The equilibrium dissociation constant (KD) was calculated as the ratio koff/kₒₙ.
For orientation: In SPR one partner is held on a chip, and binding of the other changes the refractive index at the surface.

Changes are numbered by the printed parent chain.

B1: h9E3.FN.V1 HC F91Y (antibody, name in Kabat numbering, V domains shown)
VH: EQQLVESGGGLIQPGGSLRLSCAVSGFSLSSNAMSWVRQAPGKGLEWIGIISSSGSTYSASWAKGRFTISKDSSKNTMYLQMNSLRAEDTAVYYCARVGFFVGYGAYDYGIIHRLDLWGQGTLVTVSS
VL: DAQLTQSPSTLSASVGDRVTITCQSSKSIYNNNWLSWYQQKPGKPPKLLIYDASDLASGVPSRFSGSGSGTEFTLTISSLQPDDFATYYCAGGYSGDSDYAFGGGTKVEIK
notes: Framework variant of h9E3.FN.v1 (human IgG1)
In turn, B1 came in with a Kd of 11.5 nM.

B2: h9E3.FN.V1 HC K71R (antibody, human IgG1, name in Kabat numbering, V domains shown)
VH: B1 VH with K71R, Y94F
VL: B1 VL
notes: as for B1
As for B2, the Kd turned out to be 41.3 nM.

B3: h9E3.FN.V1 HC Q2V (antibody, human IgG1, name in Kabat numbering, V domains shown)
VH: B1 VH with Q2V, Y94F
VL: B1 VL
notes: as for B1
The molecule B3 registered a Kd of 10.2 nM.

B4: h9E3.FN.V1 LC P43A (antibody, name in Kabat numbering, V domains shown)
VH: B1 VH with Y94F
VL: B1 VL with P45A
notes: as for B1
In turn, B4 registered a Kd of 15 nM.

B5: h9E3.FN.V1 LC A2I (antibody, human IgG1, name in Kabat numbering, V domains shown)
VH: B1 VH with Y94F
VL: B1 VL with A2I
notes: as for B1
For B5, the Kd was found to be 10.7 nM.

B6: h9E3.FN.V1 LC L4M (antibody, human IgG1, name in Kabat numbering, V domains shown)
VH: B1 VH with Y94F
VL: B1 VL with L4M
notes: as for B1
Regarding B6, the Kd is 7.5 nM.

B7: h9E3.FN.V1 HC S73N (antibody, human IgG1, name in Kabat numbering, V domains shown)
VH: B1 VH with S73N, Y94F
VL: B1 VL
notes: as for B1
B7 showed a Kd of 12.3 nM.

B8: h9E3.FN.V1 HC G49S (antibody, human IgG1, name in Kabat numbering, V domains shown)
VH: B1 VH with G49S, Y94F
VL: B1 VL
notes: as for B1
The molecule B8 showed a Kd of 5.6 nM.

B9: h9E3.FN.V1 HC I48V (antibody, human IgG1, name in Kabat numbering, V domains shown)
VH: B1 VH with I48V, Y94F
VL: B1 VL
notes: as for B1
In turn, B9 gave a Kd of 10.2 nM.

B10: h9E3.FN.V1 HC M78L (antibody, human IgG1, name in Kabat numbering, V domains shown)
VH: B1 VH with M78L, Y94F
VL: B1 VL
notes: as for B1
For B10, the Kd was 12.5 nM.

B11: h9E3.FN.V1 HC V24A (antibody, human IgG1, name in Kabat numbering, V domains shown)
VH: B1 VH with V24A, Y94F
VL: B1 VL
notes: as for B1
In the case of B11, the affinity, expressed as Kd, was 8.7 nM.

B12: h10C3.V1 HC F91Y (antibody, name in Kabat numbering, V domains shown)
VH: EQQLVESGGGLVQPGGSLRLSCAASGFSLSGYTMGWVRQAPGKGLEYIGVISSGGTTYYTNWAKGRFTISKDSSKNTVYLQMGSLRAEDMAVYYCARVAFTAYGGGGFPTLHRLDLWGQGTLVTVSS
VL: DQVLTQSPDSLAVSLGERATINCQSSESVYNNDYLAWYQQKPGQPPKLLIYSASTLASGVPDRFSGSGSGTDFTLTISSLQAEDVAVYYCAGGYLGNNVFGGGTKVEIK
notes: Framework variant of h10C3.v1 (human IgG1)
B12 returned a Kd of 14.9 nM.

B13: h10C3.V1 LC L4M (antibody, human IgG1, name in Kabat numbering, V domains shown)
VH: B12 VH with Y94F
VL: B12 VL with L4M
notes: as for B12
In turn, B13 came in with a Kd of 12.3 nM.

B14: h10C3.V1 HC S73N (antibody, human IgG1, name in Kabat numbering, V domains shown)
VH: B12 VH with S73N, Y94F
VL: B12 VL
notes: as for B12
The molecule B14 had a Kd of 15 nM.

B15: h10C3.V1 HC I48V (antibody, human IgG1, name in Kabat numbering, V domains shown)
VH: B12 VH with I48V, Y94F
VL: B12 VL
notes: as for B12
As to B15, the dissociation constant Kd turned out to be 17.1 nM.

B16: h10C3.V1 HC K71R (antibody, human IgG1, name in Kabat numbering, V domains shown)
VH: B12 VH with K71R, Y94F
VL: B12 VL
notes: as for B12
B16 gave a Kd of 20 nM.

B17: h10C3.V1 HC G49S (antibody, human IgG1, name in Kabat numbering, V domains shown)
VH: B12 VH with G49S, Y94F
VL: B12 VL
notes: as for B12
On to B17, for which binding was characterised by a dissociation constant (Kd) of 30.2 nM.

B18: h10C3.V1 HC V78L (antibody, human IgG1, name in Kabat numbering, V domains shown)
VH: B12 VH with V78L, Y94F
VL: B12 VL
notes: as for B12
In turn, B18 displayed a Kd of 7.4 nM.

B19: h10C3.V1 HC Q2V (antibody, human IgG1, name in Kabat numbering, V domains shown)
VH: B12 VH with Q2V, Y94F
VL: B12 VL
notes: as for B12
For the molecule B19, the affinity, expressed as Kd, was 12.5 nM.

B20: h10C3.V1 LC Q2I (antibody, human IgG1, name in Kabat numbering, V domains shown)
VH: B12 VH with Y94F
VL: B12 VL with Q2I
notes: as for B12
B20 came in with a Kd of 17.1 nM.

B21: h10F7.V1 HC V78L (antibody, human IgG1, name in Kabat numbering, V domains shown)
VH: EQQLVESGGGLVQPGGSLRLSCAVSGFSLSGYAMSWVRQAPGKGLEYIGVISSSGSSYYPSWAKGRFTISKDSSKNTLYLQMGSLRAEDMAVYFCARVQFYVGYAVYGYGIIDRLDLWGQGTLVTVSS
VL: DAVLTQSPDSLAVSLGERATINCQSSKSVYNNNWLSWYQQKPGQPPKLLIYRASTLESGVPDRFSGSGSGTDFTLTISSLQAEDVAVYFCAGGYSSSSSANAFGGGTKVEIK
notes: Framework variant of h10F7.v1 (human IgG1)
As to B21, the Kd is 5.1 nM.

B22: h10F7.V1 LC F87Y (antibody, name in Kabat numbering, V domains shown)
VH: B21 VH with L78V
VL: B21 VL with F89Y
notes: as for B21
Molecule B22 registered a dissociation constant Kd of 8.8 nM.

B23: h10F7.V1 LC L4M (antibody, human IgG1, name in Kabat numbering, V domains shown)
VH: B21 VH with L78V
VL: B21 VL with L4M
notes: as for B21
In turn, B23 yielded a Kd of 6.2 nM.

B24: h10F7.V1 LC A2I (antibody, human IgG1, name in Kabat numbering, V domains shown)
VH: B21 VH with L78V
VL: B21 VL with A2I
notes: as for B21
Take B24: the affinity, expressed as Kd, was 5.9 nM.
